In this assay the target is T1, recombinant human lymphotoxin-α homotrimer (human LTα3) (human) (UniProt P01374).
T1 sequence (looked up): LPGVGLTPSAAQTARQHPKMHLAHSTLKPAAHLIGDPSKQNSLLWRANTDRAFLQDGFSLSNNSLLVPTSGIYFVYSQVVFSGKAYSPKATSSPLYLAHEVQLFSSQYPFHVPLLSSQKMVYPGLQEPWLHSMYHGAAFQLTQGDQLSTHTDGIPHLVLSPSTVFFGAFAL
The assay is described as follows: plate-based ELISA against LTα. For orientation: ELISA stands for enzyme-linked immunosorbent assay.

Numbering of substitutions follows the chain as printed. Numbers in names are those of the source.

B1: 3F12 version 8 (3F12.v5 with G95A, CDR-H3) (antibody, IgG1, V domains shown)
VH: EVQLVESGGGLVQPGGSLRLSCAASGYTFSSYWIEWVRQAPGKGLEWVGEISPGSGSTNYNEEFKGRATFSADNSKNTAYLQMNSLRAEDTAVYYCADAYHGYWGQGTLVTVSS
VL: DIQMTQSPSSLSASVGDRVTITCKSSQSLLYSTNQKNFLAWYQQKPGKAPKLLIYWASTRDSGVPSRFSGSGSGTDFTLTISSLQPEDFATYYCQQYYSYPRTFGQGTKVEIK
For B1, the relative binding (EC50 of the variant / EC50 of version 5) is above 100.

B2: 3F12 version 10 (3F12.v5 with H100A, CDR-H3) (antibody, IgG1, V domains shown)
VH: B1 VH with A99G, H101A
VL: B1 VL
On to B2, for which the relative binding (EC50 of the variant / EC50 of version 5) was above 100.
